Earlier results as cited in US20250108009A1, “METHOD FOR SYNTHESIZING HYBRID NANOPARTICLES COMPRISING APOLIPOPROTEINS” (MEPSGEN CO., LTD., priority 2022, published 2025).

Conditions: Bekard et al. 2011

## insulin
  shear rate at which structural changes and aggregates are formed: 200 s⁻¹
  shear stress at which structural changes and aggregates are formed: 1000 dyne/cm^2
